Test results: a protein production outcome set (Wang et al. 2014)

experiment: label from the status in PepcDB records
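Also: failed if final PepcDB status was selected cloned or expressed and not failed if soluble or beyond.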

Sequence	protein production
MTFEDPSFWAALLTAATTAGAITILVALVRRNQAKGPDRRAREDAEIFLGLSDGLIVLDDGGRVSALNRAAQRMTGQEGEAAVGKSARRLLPGLESVLEGKDRLASSLGLWCRLPATGREEALASTLGALLSETTGPAGTRTVLVLRDISEQIRLTEVDDWLRVIDGHLLAGTSLGDLANDLCERVARAFGLPLLWIGVPRPEGLLVVGKGGSEAARLSAYPEGRGDEGTQGVAGRTLRSGRAQSDDAGEGWAAPTWAPGVPLGRAYCVGLRARGEVVAVLCLRGHGEAPSPALSRALEALGPRLGEAIVYERGQSLMRLQSAAIAAAANAIVITDGEGRVEWVNEAYHLLSGYERDQIIGTLPAVLAGPSAANPTAIEAWPTLRAGQVWRGEIHETHRDGRTYIVDKTITPIVDASGRLSHLVAVDEDVTARKKAEERIRYLSNYDTLTRLPNRVLFRDRLYQAVVQARRGHGGLAVMFIDLDQFSLVNDTLGHAAGDHLLMTIASRINAAAEEADTVARVGGDEFALIQTALTSADSAASLARRLIDVIRTPVDLGGREVVIGANVGIAIYPQDGTDPDNLMKNADMAMYRAVKSGDDSCCFFSNEMNAEAAVRLSLEEDLRRALDSGDQLFLHYQLQFCIESGRPVGAEALARWTHPTLGAIPPTRFIPVAEDSGLILALGDWVLGTALAEYARWRAAGCGRLTIAVNMSAVQFRQKGLVERVTDLLAQHGVPPEDLELELTESMLMQDADQAVAQLTALSQAGIRLSIDDFGTGYSSLGYLKLFRVDKLKVDQSFVRDVTEDGNDAVIARAIINLGHSLGLEVIAEGVETPEQMAYLRREGCDVVQGYLMAYPEPGETVARRLLALDALSAAPAAVVMSRSD	failed
MTFHKIFFVISLMLVVSLVNAVDYSVVDNSGDSTGGRRFRGEIGGISYGTQTLRSATDFVWRLFQQTNPSDRKSVTKITLFMENGDGVAYNSGNEIHFNVGYLAGVYRS	not failed
MTFHWKDLTPWRRIKGVAITILYLLFCIWAGPFWLIFLPLIVDYYFFHIIKWGWYKNIRNKTLRIICSWVADIIYCVVAVTFIFAFLFQNFAIPTSSLEKTLLIGDYLFVSKLSYGPRSPMTPLGVPLTHNTMPLTGGKSFSDKPLLPYKRLKGFGHVKEGDLVVFNFPAGDTVAVKQPNPDYYMWKKLVGREELWSNPDFYGEIVYRPVDRRDHYVKRCVGMPGQELSIRNNQIYIDGKEQRNPRNMQLNYLVRMSREMSVDLIDELGISYDDVRAASSEELKASVGSNLIDSASNQPQIIYHLPLTQGMLDKLQAEPSFVKAVEEPTPIGPLYPLEYETGWTRDNYGPIVIPAKGMTVRLTPLNLALYSRCIRNFEGNKLVQKADGTVLINGRPADSYTFKMDYYFMMGDNRHNSADSRYWGFVPEDHIVGKPVFIWLSLNKDKSLFGGKIRFGRMMRTVNAD	failed
MTFLPTSLKFFSSLSRASGAVWTEATKRKAPHKPLLLLAVLDLVHRGVITTPFIAVSGDLVELNELFNLYWRRIIPLGQTSSIAFPFSRLAREPFWELVPQPGKNITDAVINNTSSVSYLRKYALGAKLDDGLFRVMASGEGREALREALLLSCFSPEASAQLREQSIINREAFDYSRLLEEQAHLPLVKEIVEADNYRPTVRDQAFRKVVTSAYDHRCALCGIRIVTPDGHTVVEAAHIVPWSRSQNDDIRNGMALCRTCHWGFDEGMLGVSDNYTVITSRSIGIDPNFPGLLQTLSGRGIIPPADPDKFPAREYLAEHRRAWRL	failed
MTFNALRPVASKVIDPLADFFIRYEVSPDTVSIVSLICAFFAGLSFYYSPAYQELALLAGILVVFNSLFDALDGVIARKSNRATPRGDFLDHVIDRYSDVFIICSIFFAGYVSWQIGVAAIVGVLLTSYLGTQAQALNLGRYYGGIMGRADRLVVIILAAFANSVYPASIAGFPILGWAVILIAVTSHITAIQRIMYIWRRLD	failed
MTFPLALIAKNTPANSMIMTKLPSVKVKTEGYNPSVNVNELFAYVDLSGSEPGEHDYEVKVDPIPNIKIVEISPRVVTLQLEHHHHHH	not failed
MTFRKPPPTMKPTRSLSASLFSDPHPAAYLAAFAAVMATAVARLYLPEAFTAPSSFLLFVPAVLISAALGGVGPGVFGTTFAWAAVWWVTRDIPFDLVSGLSAAIFLSVGFGMAVGGGWFHAARRRAAAVNDHLRSILDTVPDAVVVIDRAGIMTSFSPAAQRMFGWSEAEAIGKNVSLLMPEPYQSAHDGYLDRYARTGEKRIIGAGRVVVGRRKDGSTFPMELAVGETRGPTPSFTGFIRDLTERQETETRLQELQNELVHVSRLTAMGEMASTLAHELNQPLSAIANLLTGSRRLMDRGREADQAKVRDAIDRAAAQALRAGEVIHRMRDFARRGASEREVESLSKLIEEASALALIGEKERQVDVRLKLDPKADDVFADRVQIQQVLLNLIRNGIDAMQAQEPRKRALLIRTGLTEEGWSEVSVADTGPGIAPEVLERLFQPFMTTKPQGMGVGLSISRSIIEAHGGRIWAEANPGGGALFRFTLPPAESLAGEKETIDD	failed
MTFRNCVAVDLGASSGRVMLARYERECRSLTLREIHRFNNGLHSQNGYVTWDVDSLESAIRLGLNKVCEEGIRIDSIGIDTWGVDFVLLDQQGQRVGLPVAYRDSRTNGLMAQAQQQLGKRDIYQRSGIQFLPFNTLYQLRALTEQQPELIPHIAHALLMPDYFSYRLTGKMNWEYTNATTTQLVNINSDDWDESLLAWSGANKAWFGRPTHPGNVIGHWICPQGNEIPVVAVASHDTASAVIASPLNGSRAAYLSSGTWSLMGFESQTPFTNDTALAANITNEGGAEGRYRVLKNIMGLWLLQRVLQERQINDLPALISATQALPACRFIINPNDBRFINPETMCSEIQAACRETAQPIPESDAELARCIFDSLALLYADVLHELAQLRGEDFSQLHIVGGGCQNTLLNQLCADACGIRVIAGPVEASTLGNIGIQLMTLDELNNVDDFRQVVSTTANLTTFTPNPDSEIAHYVARIHSTRQTKELCA	not failed
MTFRYRGPSPKGDQPKAIAGLVEALRDGERFVTLLGATGTGKTVTMAKVIEALGRPALVLAPNKILAAQLAAEFRELFPENAVEYFISYYDYYQPEAYVPGKDLYIEKDASINPEIERLRHSTTRSLLTRRDVIVVASVSAIYGLGDPREYRARNLVVERGKPYPREVLLERLLELGYQRNDIDLSPGRFRAKGEVLEIFPAYETEPIRVELFGDEVERISQVHPVTGERLRELPGFVLFPATHYLSPEGLEEILKEIEKELWERVRYFEERGEVLYAQRLKERTLYDLEMLRVMGTCPGVENYARYFTGKAPGEPPYTLLDYFPEDFLVFLDESHVTVPQLQGMYRGDYARKKTLVDYGFRLPSALDNRPLRFEEFLERVSQVVFVSATPGPFELAHSGRVVEQIIRPTGLLDPLVRVKPTENQILDLMEGIRERAARGERTLVTVLTVRMAEELTSFLVEHGIRARYLHHELDAFERQALIRDLRLGHYDCLVGINLLREGLDIPEVSLVAILDADKEGFLRSERSLIQTIGRAARNARGEVWLYADRVSEAMQRAIEETNRRRALQEAYNLEHGITPETVRKEVRAVIRPEGYEEAPLEADLSGEDLRERIAELELAMWQAAEALDFERAARLRDEIRALEARLQGVRAPEPVPGGRKRKRR	not failed
MTFSAPAPTQLDPVVRHLYVHVPFCPSICPYCDFHVLTRQAGLVERYLERLEQEAAELAAAYAVDLDTVYLGGGTPSFLRDHELRALVESVQRHLGWGRAENTLEINPGTVSTERAALWRSLGFDRASVGVQSLDDATLKFLGRRHDARQARDAVSRLIAQDFRVSGDLITAVPGQPLDSDIHGLVELGVGHVSAYTLTIEPGTEFARRGVQVDEDAEREGFERTEELLAGHGFSRYEVSNYARAGQESRHNLSYWQGKTYLGLGPGAAGHYPVPTPGADALTLRRTNPHLHDWLVGQQGETLLVDPHEYVTDALFMGLRLRRGLDLADLTRRSGVDVAGRYGLVIERQVRLGLLEHSGTNLRATAQGWWVLNRIVREFMEVDAAETA	failed
MTFSNQLTILRIILVPVFVLLLMQDSAWYRLLGVIVFVTASLTDIYDGYHARKYGEVTRLGAFLDPLADKLLITTAFLFYVWEGYLALWMVLLVAARDIVVTGLRVYAEHIDHPVVTSKEAKYKTFAQNLFAYVIMLFILLKEKSFFGPKMAAFMEVILHSPWLGYAMFAITLFTVWTGVSYLISNRRLIFRNSAGGR	not failed
MTFTDALGQAHAPVDTTPRIASLVPSITDLLFSLDLGGQLVARTGFCIHPREAVRAIPKVGGTKTVKLDRLRELAPTHVIVNIDENTRETADKLREFVPHVIVTHPCAPEDNLTLYGLLGGIFRREAQAQRLSEALARELAALRGQVFPLRRVLYAIWQDPWMTVARDTYISRMLALIGCQTWPEDPAPVQCGTGRHGDCARPNRPDTRYPTFRWSDEVVRNIDCVLLSTEPYSFTEAHADALEKQIGKPVYLVDGEMVSWYGSRAIEGVRYLGRLAQALT	failed
MTFYDREAELDTLSDAVESPGADFVVVYGRRRVGKTELLKEFCANRPHIYFLAAQEAEHRQREKFLDQVADYFDERVPRIDGWDEAFEYLGEQLQREDLVVVIDEFPYLVAENDSLPSYVQGFVDQELDGTDSMIVLCGSSVSTMESEILGHESPLYGRRTAQLDVTPFSFQQAREVISYDIQDAIRSYAVTGGTPMYLTLFDYTQSLAANIQSHVLSPSAVLYNEPEFLLRTELRNPARYMSILEAVALGHTTPNEISGATGIDSGPLSKYLQTLRRLRLIERDVPVMASGKKSKRSRYRVADEFLRFWFRYVEPNRSSIEEAPEIVYDGTIEPDLPTHVATTFEDVCQEAVWEGIRRGTFDPYSEVGRWWYGEEEIDIVGLAPNDDRVLLAECKWTTDPVGEDLVESLRAKAEHVRWGPPDRDEQFALFSKSGFVDGLEAQLDDSWSLFTVADIDDLLTPS	failed
MTGCFLWQLYLPKLQTGSLKPEVPPAPVKMCPRHPELVPLAHPLPVLKEALEKVDGILRKAMLAPGLAAMSALVIHNDTVLWTGNFGRKNGSDPNSGTPNEYTMYRIASISKIFPVLMLYRLWEEGIVDSLDDPLERYASTFSINNPLGTAQGPGAQGPTGESEEMGSLPRPSPVTLRRMASQLSGLPRRLRGTSLLWRGSTQEALSLLKDDVLVADPGTRCHYSTLAFSLLAHVLAAHRAQGDYERWVSEQVLEPLGMSDTGFALTGTVRARLAAGFYGSGRSAPLYDLGWYRPSGQMYSTAADLARLAAALLGAGPRRLLRPDSLATLLAPLRACAHGYFASETGTPWEFHERRGYRVARKDGDLDGYAASLALVPPLRLGFVLLLAGPRPPTRDLVADALDTLLPALERALREAELAPAPPPRARPFAGFFTFANRTFYEVRAAGPRGELRLRQFGPRVEALVPAAFRSLALRHVRGRVFQLHVAREFPCALPLADAWLSLESQHGQLVRFYPLDRHGLAPGFDSCDSMDGWNTTCSAVHFLEDVWVVYNLQFL	failed
MTGDYALCGWRVRIDRPSTFAPPWIGEDRPVDITIRHAAFSPPSPPLLFESPLVGVFAEGAIVLRINPGLGFLIEGGARITVDATAQTGEAEIATFLFGQCLGFLALQRRQPALRAASVVRDGRAVVLAGAAGVGKSTLAAALMAKGWGLLADEVTLIDPRTLLIPPAFGRIKLWKDSATHLGLEAAALPAVRPGWNKGHAPYGGHLAPAPVPLAAIILIEQAYTAKTAGIDKIAPREALAALNDQLHGGTFAGALAARPACFDLLTTLVGGVPVFQLSRPWHGMTLAPLVELLTAEMARLEHHHHHH	failed
MTGEGRYEEVEAEARTLAALPRRPWRRRPPHWEARVLATGAAVMHGRMAEALDELDTLIAELEPVGLNSQMLRLIARSNRVVALSGLRRYAEAETVANGVLRELNQIAHRAPVSGLETNTLRHLATVLCGLARHEEAEAVVRGNLSRANGPAAGVLHTTLAQSLNGQGRYEEALAEVRRSPPRPPRYAAGHPDLVAAEALYGLGRRAEAEDAVRRSLADCERWLHPAHPRTGEARALLARVTGPKPGEESRGEPGE	failed
MTGFASLPVEFLITVFAMSFSIGFVAIIAGTGGGVLFTSCLWDLHQYIRTNKSNRTSFGDCWAIGPTINLIMLAPLKIATTTSAVVISIGDTAAIFPYFMSGSLLPIFAVPAVAGLMTGARFGSAVAVRVKAKYIRYTLTTILLFAGIKLIWVGLWMLEG	failed
